Experimental data reported in the DeepSol protein solubility set.

Experiment: soluble on expression in E. coli; label from the status in PepcDB or PDB records

Sequence	soluble on expression in E. coli
MAHHHHHHMNNTNIVTFSPKLKYSINDVVHRDREVKEYHLQIDREASDILFFCTIKPKQVSELLEGEVKINLKREVGEQYSVASEDGTHVCDFSKGNLNISPSAGFNYKHDRSVSCIYLVIPNKLFLIKLPKLNIVTEQFLPNLVSCLSEYSFINFNLKHVEESDDSISLHLSFGDFKKNFNVSCAFDLSEYAVEPCSLGKKGIVTFYFNA	not soluble
MSLPIDTWFPLAVSRNLLTPDPALHERMVAQIFQWRGDLWANPSGESAWTGDMNGVALVHEHPDFAWLRSQVEVEALQFCQALGFQTEALQLWIQRSWPVVSEPGQSIGAHHHPNAHLSAIYYLNGSGDPELGALRIFDDRPRNELVPGLAVGYGEVIAEEAALNQAWIDYPPQAGLLLMFPASTRHGVTENLTDLTRLSVSFDLYLTARSATELAPEYLAPPVNRWSPIQLREGHHHHHH	soluble
MSLENKKMEFWFVVGSQHLYGEEALKEVRKNSETIVDELNKSANLPYKIIFKDLATSADKIKEIMKEVNYRDEVAGVITWMHTFSPAKMWIAGTKILQKPLLHFATQYNENIPWKTIDMDYMNLHQSAHGDREYGFINARLKKHNKVVVGYWKDKEVQKQVSDWMKVAAGYIASESIKVARFGDNMRNVAVTEGDKVEAQIQFGWTVDYFGIGDLVAEMDKVSQDEINKTYEEFKDLYILDPGENDPAFYEKQVKEQIKIEIGLRRFLEKGNYNAFTTNFEDLYGMKQLPGLAVQRLNAEGYGFAGEGDWKTAALDRLLKVMTNNTATGFMEDYTYELSRGNEKALGAHMLEVDPTFASDKPKVIVKPLGIGDKEDPARLIFNGSTGKGVAVSMLDLGTHYRLIINGLTAVKPDEDMPNLPVAKMVWKPEPNFIEGVKSWIYAGGGHHTVVSLELTVEQVYDWSRMVGLEAVIIDKDTKLRDIIEKTTEGHHHHHH	soluble
MGSDKIHHHHHHMACGRMYHFNVFAYGVEEILREVSKKGTESDIRLYNRKEEDGVMTFIEPIKYPDKVSSLTDSIYPTDLFIINGENLDKYFAETVIALDLFGKTRGIIVASEDKQSTIRKLLKDTNIQPEFFSGRPMEIIDRIKAFKIERNEQDTLVVIDHYFKVKSVGTVILGFVLSGKIRKHQDLYLSGINREVQVRSIQVNDVDFDEAEAGTRVGVALKNVEVEELSRGMFLAEKPFEYTNQVKDSVVFHKSLKGRDTMSDPYISDLMNFVKCNPEGDAYTTRFKLPLLKDSFVMADQNGFPRVVGYSKVKR	not soluble
MKPTLFLLAAGMGSRYGGLKQLDGLGPNGETIMDYSIYDAINAGFGKLVFVIRKDFEQDFREKIISKYEGHIPCELVFQSIDDLPEGFTCPADRTKPWGTNHAVMMGADVISEPFAVINCDDFYGRDSFQVMGKFLSALPENSKNVYSMVGFRVGNTLSESGTVSRGICSTDANNLLTSVVERTKIQRLDGEVKYIDDNGEWTATPDTTPVSMNFWGFTPDYFAYSEEFFKTFLSDPKNMENLKSEFFIPLMVDKLINDGTATVEVLDTTSKWFGVTYPEDRQSVVDKIQALVDAGEYPAKLF	not soluble
MRIVALEGIDGSGVSTHSRLLHARLAGAGVKSCLWKEPTEGPVGRLIRGFLRSTEGVDSDLMALLFAADRLWGLRLGVVERCGGSPEVLVVDRYKYSSLAYQGVGSGLEWVDAVNRKAPEAEILVYIDVPTEVALRRITARERREVFETPEFLERVKSMYEEVLRLARARGVKVIRVEGVRGGVERGIEDVQGEIAERVFEALGLARA	soluble
GSGAVSIASSKVSAQYTSTVPPSHYIETWAKTHPEWKAVEVATGFLGSQKIVTEDWTYKKLNETANQVANLIIHASLHGRAIAVSLDRSLIAFAIIVGIMKSGNTYVPIEAGLPNDRKSFLLRDSRAAMAFVCDNNFDGVELPPETKVLDTKNQSFIENLSTQDTSDILNNYPENLDAYLLYTSGSTGTPKGVRVSRHNLSSFSDAWGKLIGNVAPKSLELGGVGKFLCLASRAFDVHIGEMFLAWRFGLCAVTGERLSMLDDLPRTFRELGVTHAGIVPSLLDQTGLVPEDAPHLVYLGVGGEKMTPRTQQIWSSSDRVALVNVYGPTEVTIGCSAGRILPDSDTRCIGHPLGDSVAHVLAPGSNEHVKKGMAGELVIEGSLVANGYLNRPDAKGFCDINGRKMYRTGDIVRMDADSSILFLGRKDEQVKVRGQRLELGEVSEVIRSLSPTDIDVVTLLLNHPGTSKQFLVSFVASSGAAVRGELRWINENYKEINNSLRQACEQTLPAYMVPDFIIPISFIPLRDTSAKTDAKALEHMFHTLSLGELFGESSSLVNKPTT	soluble
MNTNERIVPLLPLRGVLVYPTMVLHLDVGRDKSIQALEQAAMDENIIFLAMQKEMNIDDPKEDDIYSVGTVAKVKQMLKLPNGTLRVLVEGLHRAEVVEFIEEENVVQVSIKTVTEEVEADLEEKALMRTLLEHFEQYIKVSKKVSNETFATVADVEEPGRLVDLIASHLPIKTKQKQEILEIISVKERLHTLISIIQDEQELLSLEKKIGQKVKRSMERTQKEYFLREQMKAIQTELGDKEGKGGEVEELREKIEQSGMPEETMKAALKELDRYEKLPASSAESGVIRNYMDWLLALPWTDATEDMIDLAHSEEILNKDHYGLEKVKERVLEYLAVQKLTNSLKGPILCLVGPPGVGKTSLARSIATSLNRNFVRVSLGGVRDESEIRGHRRTYVGAMPGRIIQGMKKAKSVNPVFLLDEIDKMSNDFRGDPSAALLEVLDPEQNHNFSDHYIEEPYDLSKVMFVATANTLSSIPGPLLDRMEIISIAGYTELEKVHIAREHLLPKQLQEHGLRKGNLQVRDEALLEIIRYYTREAGVRTLERQIAKVCRKVAKIIVTAERKRIVVTEKNVVDLLGKHIFRYGQAEKTDQVGMATGLAYTAAGGDTLAIEVSVAPGKGKLILTGKLGDVMKESAQAAFSYIRSRAEELQIDPNFHEKNDIHIHVPEGAVPKDGPSAGITMATALISALTGIPVSKEVGMTGEITLRGRVLPIGGLKEKTLSAHRAGLTKIILPAENEKDLDDIPESVKENLTFVLASHLDEVLEHALVGVKQ	not soluble
MAAFAVDPQAPTLGSEPMMLGSPTSPKTGANAQFLPGFLMGDLPAPVTPQPRSISGPSVGVMEMRSPLLAGGSPPQPVVPAHKDKSGAPPVRSIYDDISSPGLGSTPLTSRRQANISLLQSPLVGATPPVPGQSMFSPANIGQPRKTTLSPAQLDPFYTQGDSLTSEDHLDDTWVTVFGFPQASASYILLQFAQYGNILKHVMSNTGNWMHIRYQSKLQARKALSKDGRIFGESIMIGVKPCIDKNVMENSDRGVLSSPSLAFTTPIRTLGTPTQSGSTPRVSTMRPLATAYKASTSDYQVISDRQTPKKDESLVSRAMEYMFGW	soluble
MGSDKIHHHHHHMKILKHSLFTSVVNKMRLIHHQDDTAKLSLLITGMSGTGKSTLVDWYEQQYPVEYTPEVTLKRVICVHLTKPNSPINLLEQIINAMGTSYIPRRRTLNKLLHQLKCLLEACQTELIILDEAQECLPDSDGIKAQSMAKAFVAIIDKCNVPLILIGTPALKRLLKLKYLADVKNISREEQLSRRFIAPCQLNIFLSHCDAWVNVINFFGKTKGLRNLNTKDADILDRLYVATYGRIGLIKKLFAFTQLNETSDLQATFYDAYELVDTTGEANPFNQQDYTYAAIIKKAENIERIYFTHNKTHPSEKRVADRLFH	not soluble
MGSDKIHHHHHHMNGQLLRQIANYQILYSACCKDLGLLRGKIGISLFFFHYAHFCGDSLYSDYANELIGDVYDDIRIDTPWGIRNGLLGIGWGLEYFMQKGFVECGSNDILTELDNKIMERDLRRVKDYSFDTGIEGLAWYVLIRLLSSERYLQKPFDKMYLDDLRGVCENVPNKVCHPGISLLLDYLVGKQIDDWYLVVLGKITSQRTGGEKKEALLWVEGLKYLLR	not soluble
MGSDKIHHHHHHMKDILVIGATGKQGNAVVKQLLEDGWYVSALTRNKNNRKLSDIGHPHLSIVEGDLSDNVSLQSAMKGKYGLYSIQPIVKDDVSEELRQGMKIIEIAEQENIQHIVYSTAGGVNRNRTGPHFEVLAKIENRLMESNINATVIKPSFFMDNFLRIAKVEDERITLPEFINPNIKFTMISSIDIAKIASYIFAHPQSFTHQSIEIGSDEVTLSEAATIFSEVTGKSTVIEGEFVSGVAEKQWLEEKGYEVDFELMAEINPTRLSLSDWLKVQNYNK	not soluble
MFDAKKLEQIAKQIHEAMPQPVKELGADVEQKVRQVIQGQLNKLDVVSREEFDVQTQVLLRTRQKLTELEQKMAELEAKLADK	not soluble
MDIGTQLKFLRNRRGWTMQEVADRIGKNDSTYSGYETNKRKPNAEVLVQLADIFDTTTDFILGRTENPNGLNFNVKDFLDQGRLHSDGVEITDEQAEIANVLLRQLLQRKQQ	not soluble
AIAVHQASPVKNISDTRPKRSPEYWYYYCTYEDNSVKSPLVPGLKVETQAVADRFSADIFSAVERYNQLFSEVQKQSFKYVPEEESDNQSN	soluble
GASLAPLRRMREVAARVSANSLTTRLDASRMPEELRGLAGELNAMLARLEEAFQRLSAFSADIAHELRTPLTSLLTQTQVVLSRPRSLEDYREALHGNLEELERLTAMVNDMLLLAKADHGLLAPSRQALDLGAEVDSLLEFYQPLAEDRDIRLLREGSLSLPGDRGMLRRVLANLLDNALRFTADGGEIRIRLGDRRLSVENQGPAIPPERLPRLFDRFYRADPARREGQGEHAGLGLAICRSIVQAHGGEIRCESADGWTRFVIDFAR	not soluble
MIGGSLDAFIGSVHRMAAALDGTIELVCGAFSSNAARSIQTGEALHLPKERIYASYEEMIVQEAQLPADVRMQFVSIVTPNHLHAQPALLALKHGFHVLCEKPLAFSVAEAEQLGIQVKETGLLFGLTHTYTAYPMVKEARDLIAKGKLGTIRKIIVEYPQGWLSAPIESDGQKQAGWRTDPAQAGLSCCVGDIGTHAENIAEYITGLKITELSADVSSVVAGRKLDDDANILLRFDNGAKGVLIASQIANGEENELKIRVYGEHAGLEWLQSEPNTLIVKQNDQPTQLRRAGANHSYLSEHARLHCRIPAGHPEGYIEAMANIYRNFSKAVHSFEDQITHNPLLDYPTIEDGIRGMKFIETVIISGKENATWKQLLEHHHHHH	soluble
MADGLRVALVAGEASGDILGSGLMQALRARHPDIEFIGVGGPRMEAEGLSSYFPMERLSVMGLVEVLGRLPELLRRRKRLIRTLIEARPDVMIGIDAPDFTLGVEHKLRQAGLRTVHYVSPSVWAWRQKRVLKIREACDLMLALFPFEARFYEEHGVPVRFVGHPLANTIPLQADRAAARARLGLPADGQVLALMPGSRGGEVGKLGALFLDTAQRLLVERPGLRFVLPCASAARREQIEQMLQGREPLPLTLLDGASHEALAACDAVLIASGTATLEALLYKRPMVVAYRVAGLTYRILKRLVKSPYISLPNLLAGRLLVPELIQDAATPQALAATLSPLLDDGSQQVEFFDAIHRALRQDASAQAA	not soluble
MGSDKIHHHHHHMDIIREITPLSEKDCFYIVDRRKTEFTYPIHCHSEYELNFIEHAPGVRRVVGDSAEVIGEYELVLITGKELEHVWEQNACKSPLIHEITIQFSPDLFGKNLLEKNQFNSIRKMLEKAQCGISFPMSSILKVYHLLEKLVSEEQSFYAVINFLTILYELSVEENYKVLASSSFAKITDIHSESRRIQKVQNYINERYQQDIRLNQLAELVGMAPSAFSRFFKLRTGKTLSDYITDIRIGYAARMLVDTQRSIAEICYDCGFNNLSNFNRIFKKKKNCSPKEFRDNYKKTKIIV	not soluble
SEKNPPDDTGPVHVPLGHIVANEKWRGSQLAQEMQGKIKLIFEDGLTPDFYLSNRCCILYVTEADLVAGNGYRKRLVRVRNSNNLKGIVVVEKTRMSEQYFPALQKFTVLDLGMVLLPVASQMEASCLVIQLVQEQTKEPSKNPLLGKKRALLLSEPSLLRTVQQIPGVGKVKAPLLLQKFPSIQQLSNASIGELEQVVGQAVAQQIHAFFTQPR	soluble
